Results taken from patent publication US8431396B2, “Anti-angiogenic peptides” (The Cleveland Clinic Foundation, priority 2003, dated 2013).

What was measured:
[1] = tested on: chick embryo chorioallantoic membrane (CAM); experiment: Chick embryo chorioallantoic membrane (CAM) assay of VEGF-mediated angiogenesis; format: in vivo, chicken; details: VEGF165 100 ng
Description: The CAM assay was done as described with slight modifications. Fertilized 3-day-old white Leghorn eggs (Sunnyside, Beaver Dam, Wis.) were cracked and embryos with the yolk intact were placed in glass-bottomed Petri dishes. […] Angiogenesis was reported as the angiogenic index (mean number of tertiary branchpoints from experimental conditions minus the mean number of branchpoints from buffer controls with no angiogenic stimulator).

[2] = tested on: MDA-MB435 human breast carcinoma cells; experiment: Tumors from mice injected with MDA-MB435 cells transfected with TIMP3, von Willebrand factor staining; format: in vivo; details: von Willebrand factor immunostaining; TIMP3-transfected tumor cells
Description: Brown reaction product depicts endothelial cells lining the vessels.

PAE-KDR cells = experiment: Endothelial cell proliferation in response to VEGF165 and VEGF121; format: cell-based, porcine
Description: (§1) (A) Proliferative response of PAE-KDR cells to VEGF165 (5 ng/ml; left) and VEGF121 (30 ng/ml; right). […] (C) DNA synthesis of endothelial cells in response to VEGF165. […] [3H]thymidine incorporation was measured during the last 5 h of incubation. (D) Analysis of endothelial cell expressing TIMP3. […] Expression of TIMP3 protein was determined by immunoblotting with antibody against TIMP3 (top left). MMP-inhibitory activity was determined by reverse zymography (top right). Corresponding densito-metric quantitation is expressed as arbitrary optical density (OD) units±s.d. (C) DNA synthesis in adenovirus-infected cells in response to VEGF. […] In all proliferation experiments, total number of cells was counted at 48 h. Proliferating cell number is expressed as means±s.e.m. of quadruplicate samples. DNA synthesis data represent the means±s.e.m. of triplicate samples; similar results were obtained in at least 2 different experiments. *, P<0.01.
(§2) A modified Boyden chamber assay for migration and proliferation assays were carried out as described.

PAE-FGFR1 cells = experiment: Endothelial cell proliferation in response to bFGF; format: cell-based, porcine; details: recombinant TIMP3 (1 and 5 μg/ml) or overexpression
endothelial cells = experiment: DNA synthesis ([3H]thymidine uptake) of endothelial cells in response to VEGF165; format: cell-based; details: TIMP3 at 1 μg/ml and 10 μg/ml
Description: as §1, §2

KDR = target: T1, KDR (Homo sapiens, UniProt P35968); experiment: [125I]VEGF binding to the surface of PAE-KDR cells; details: pretreatment with recombinant protein
T1 construct: To determine whether these receptor isoforms represent full-length VEGFR-2; expressed in transfected cells; host or cells: porcine aortic endothelial (PAE) cells
T1 sequence (P35968 20-1356): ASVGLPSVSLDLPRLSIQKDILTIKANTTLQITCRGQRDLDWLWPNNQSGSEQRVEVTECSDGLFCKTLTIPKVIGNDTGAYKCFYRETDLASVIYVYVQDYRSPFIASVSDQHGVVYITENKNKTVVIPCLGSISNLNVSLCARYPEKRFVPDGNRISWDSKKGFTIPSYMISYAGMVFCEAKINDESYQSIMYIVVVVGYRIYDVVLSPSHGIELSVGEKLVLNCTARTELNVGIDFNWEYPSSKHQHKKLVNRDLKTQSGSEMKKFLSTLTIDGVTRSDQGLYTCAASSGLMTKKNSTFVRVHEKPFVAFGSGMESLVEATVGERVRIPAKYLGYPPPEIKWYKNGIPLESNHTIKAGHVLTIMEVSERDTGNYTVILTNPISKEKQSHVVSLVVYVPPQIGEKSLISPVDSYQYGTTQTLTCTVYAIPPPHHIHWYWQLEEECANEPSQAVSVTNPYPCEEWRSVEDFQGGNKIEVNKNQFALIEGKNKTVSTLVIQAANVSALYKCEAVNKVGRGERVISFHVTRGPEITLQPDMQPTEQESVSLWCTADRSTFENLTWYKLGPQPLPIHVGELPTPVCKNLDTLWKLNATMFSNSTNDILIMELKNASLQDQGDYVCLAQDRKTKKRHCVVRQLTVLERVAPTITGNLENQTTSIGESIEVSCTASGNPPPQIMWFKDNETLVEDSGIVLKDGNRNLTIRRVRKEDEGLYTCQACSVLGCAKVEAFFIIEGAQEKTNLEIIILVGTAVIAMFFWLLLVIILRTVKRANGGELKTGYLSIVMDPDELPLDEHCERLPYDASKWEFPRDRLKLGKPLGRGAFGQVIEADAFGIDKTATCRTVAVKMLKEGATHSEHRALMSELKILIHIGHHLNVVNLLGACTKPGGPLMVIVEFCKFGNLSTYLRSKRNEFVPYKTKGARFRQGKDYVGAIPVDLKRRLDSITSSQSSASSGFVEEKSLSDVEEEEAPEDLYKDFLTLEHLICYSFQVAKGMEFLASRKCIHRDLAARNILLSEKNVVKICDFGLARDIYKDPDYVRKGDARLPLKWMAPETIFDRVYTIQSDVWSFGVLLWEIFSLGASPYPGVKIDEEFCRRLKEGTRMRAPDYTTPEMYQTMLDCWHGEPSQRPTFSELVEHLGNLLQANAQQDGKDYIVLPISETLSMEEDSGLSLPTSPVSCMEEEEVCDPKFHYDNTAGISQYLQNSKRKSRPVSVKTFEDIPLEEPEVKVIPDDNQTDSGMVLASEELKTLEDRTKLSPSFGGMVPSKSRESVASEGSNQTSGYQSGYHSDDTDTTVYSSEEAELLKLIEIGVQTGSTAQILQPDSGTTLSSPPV
Description: Radioligand binding is expressed as percent binding and is the mean±s.e.m. of triplicate samples. […] All values are expressed as mean±s.e.m. of triplicate samples. […] Binding is expressed as mean±s.e.m.
Data were analyzed by Scatchard plot analyses.

soluble FLT1-IgG = target: T2, soluble FLT1-IgG (Homo sapiens, UniProt P17948); experiment: Solid-phase binding of [125I]VEGF165 to soluble FLT1-IgG; details: similar doses as for KDR-IgG
T2 construct: purchased R&D Systems
T2 sequence (P17948 27-758 limits assumed): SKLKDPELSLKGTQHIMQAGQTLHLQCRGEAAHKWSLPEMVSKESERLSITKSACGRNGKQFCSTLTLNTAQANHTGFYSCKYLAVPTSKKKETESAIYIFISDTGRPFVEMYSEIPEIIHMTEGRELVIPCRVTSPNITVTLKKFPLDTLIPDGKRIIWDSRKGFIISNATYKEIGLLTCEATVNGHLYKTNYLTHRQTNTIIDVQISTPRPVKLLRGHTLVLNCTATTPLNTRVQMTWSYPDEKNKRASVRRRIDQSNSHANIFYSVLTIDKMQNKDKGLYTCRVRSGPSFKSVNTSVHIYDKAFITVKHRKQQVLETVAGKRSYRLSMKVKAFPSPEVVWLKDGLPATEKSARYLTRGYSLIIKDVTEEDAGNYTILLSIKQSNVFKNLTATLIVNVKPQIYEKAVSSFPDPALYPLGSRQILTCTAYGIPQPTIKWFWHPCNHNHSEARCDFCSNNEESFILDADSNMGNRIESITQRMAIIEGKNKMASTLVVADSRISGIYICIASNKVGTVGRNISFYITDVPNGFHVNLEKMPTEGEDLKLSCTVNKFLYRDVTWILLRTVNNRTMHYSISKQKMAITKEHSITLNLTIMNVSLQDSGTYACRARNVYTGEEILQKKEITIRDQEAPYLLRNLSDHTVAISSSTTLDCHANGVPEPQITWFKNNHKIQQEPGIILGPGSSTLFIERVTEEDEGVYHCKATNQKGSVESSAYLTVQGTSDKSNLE
Description: (B) Expression of KDR in the lysate and plasma membrane (PM) of PAE-KDR and PAE-KDR-TIMP3 was analyzed by immunoprecipitation (Ip) and western blot (Ib) analysis with antibody specific for KDR. […] Values are the mean±s.e.m. of triplicate wells.
Soluble KDR-Fc or FLT1-Fc (50 ng) was added to each well. […] After washing, the bound protein was solubilized with 1% SDS and 1 M NaOH and radioactivity measured in a γ-counter.

KDR-IgG = target: T3, KDR-IgG (Homo sapiens, UniProt P35968); experiment: Cross-linking of [125I]TIMP3 to soluble KDR; format: binding; details: bis(sulfosuccinimidyl)suberate
T3 construct: purchased R&D Systems
T3 sequence (P35968 20-764 limits assumed): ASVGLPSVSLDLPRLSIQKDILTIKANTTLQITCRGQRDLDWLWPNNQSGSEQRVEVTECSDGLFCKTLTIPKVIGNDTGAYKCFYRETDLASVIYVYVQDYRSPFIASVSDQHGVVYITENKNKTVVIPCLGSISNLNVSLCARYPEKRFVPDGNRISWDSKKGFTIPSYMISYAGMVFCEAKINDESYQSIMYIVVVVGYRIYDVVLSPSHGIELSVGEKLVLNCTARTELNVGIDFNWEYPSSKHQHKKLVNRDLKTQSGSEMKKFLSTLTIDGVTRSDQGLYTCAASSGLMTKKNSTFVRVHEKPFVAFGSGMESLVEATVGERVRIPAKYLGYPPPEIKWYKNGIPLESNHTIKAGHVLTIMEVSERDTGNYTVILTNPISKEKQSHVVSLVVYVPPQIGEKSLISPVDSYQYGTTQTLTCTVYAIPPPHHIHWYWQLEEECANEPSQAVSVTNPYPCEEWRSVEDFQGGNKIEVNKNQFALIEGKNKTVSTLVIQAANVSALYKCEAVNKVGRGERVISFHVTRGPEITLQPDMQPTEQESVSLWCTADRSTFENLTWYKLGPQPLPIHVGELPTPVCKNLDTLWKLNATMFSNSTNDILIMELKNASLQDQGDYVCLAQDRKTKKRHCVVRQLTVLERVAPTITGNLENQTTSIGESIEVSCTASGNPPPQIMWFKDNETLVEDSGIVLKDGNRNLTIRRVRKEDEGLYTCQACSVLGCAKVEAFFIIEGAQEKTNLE
Description: Immunoprecipitation of cell lysates with antibodies specific for TIMP3 was followed by immunoblotting with antibodies specific for KDR (top). As a control for KDR receptor, cell lysates were immunoprecipitated with anti-bodies specific for KDR and probed with antibodies specific for KDR Immunoprecipitation with antibodies specific for KDR and immunoblotting with antibodies specific for TIMP3 (bottom) were carried out on PAE-KDR cells exposed to recombinant TIMP3 or PAE-KDR-vector and PAE-KDR cells overexpressing TIMP3, to confirm the interaction. […] Competition with unlabeled TIMP3 was carried out to ensure specificity. […] (E) In vivo interaction of KDR and TIMP3 in human placenta. Immunoprecipitation using antibodies specific TIMP3 (top) and KDR (bottom) was followed by immunoblotting with antibodies specific for KDR (top) and TIMP3 (bottom).
Ligand-receptor complexes on the cell surface were crosslinked with 0.5 mM disuccinimidyl suberate (Pierce) and analyzed by immunoprecipitation and SDS-PAGE followed by autoradiography. For in vitro assays, radioligand was crosslinked with 250 ng soluble KDR.

VEGFR-2 (KDR) = target: T4, VEGFR-2 (KDR) (Homo sapiens, UniProt P35968); experiment: [125I]VEGF binding in transfected PAEKDR cell lines; details: PAEKDR cells expressing WT-TIMP3
T4 construct: To determine whether these receptor isoforms represent full-length VEGFR-2; expressed in transfected cells; host or cells: porcine aortic endothelial (PAE) cells
T4 sequence (P35968 20-1356): as the sequence (P35968 20-1356) above
Description: PAEKDR cells were transfected with TIMP3 cDNA or empty vector using Lipofectamine reagent (Gibco-BRL Rockville, Md.). Stable clones were isolated using Hygromycin selection.
After washing, the cell monolayers were solubilized with lysis buffer (20 mM Tris HCl pH 7.5, 1% triton X 100 and 10% glycerol), and the radioactivity measured in a gamma counter.

soluble VEGFR-2 = experiment: Soluble VEGFR-2 (sKDR) in conditioned medium (ELISA); format: cell-based, human; details: WT-TIMP3 cells; data not shown
PAEKDR cells [3] = experiment: VEGF-stimulated migration (modified Boyden chamber) of transfected PAEKDR cells; format: cell-based, porcine; details: VEGF 50 ng/ml
Description: A modified Boyden chamber assay was carried out as described previously 34. Briefly, 8.0 μm pore PVPF polycarbonate membranes were pre-coated with 100 μg/ml collagen type I in 0.2 N acetic acid (Cohesion technologies, INC. Pala Alto, Calif.). […] Chamber was then incubated for 4 hrs at 37° C. in a 5% CO2 humidified incubator. Cells remaining on the top of the filter were removed. Cells on the bottom surface of the filter were fixed, stained and mounted. The number of migrating cells per well was counted microscopically.

PAEKDR cells [4] = experiment: VEGF-stimulated actin reorganization / membrane ruffles; format: cell-based, porcine; details: 50 ng/ml VEGF for 15 min
Description: For immunostaining, subconfluent cells cultured on Falcon cultureslides (BD, Biosciences) were used. For surface KDR detection, cells were fixed in 1% paraformaldehyde for 10 min at 4° C. Following blocking with 1% BSA cells were incubated with anti-extracellular VEGFR-2 monoclonal antibody for 1 h at room temperature. Surface KDR was detected with biotinylated anti-mouse […] (1:1000) and Texas Red avidin D (1:1500) using standard procedures. […] The cells were fixed with 3.7% paraformaldehyde in PBS for 30 min at 4° C. and permeabilized with 0.2 Triton X-100 for 20 min at room temperature. Following rinsing with PBS the cells were incubated with fluorescein isothiocyanate (FITC)-labeled phalloidin in PBS (0.66 μg/ml, Sigma) for 20 min at room temperature washed with PBS and analyzed by fluorescence microscopy.

B1: TIMP3: tissue inhibitor of metalloproteinases-3; recombinant human form expressed in NSO myeloma cells, or wild-type expressed in transfected cells (protein, listed as Homo sapiens)
chain: MTPWLGLIVLLGSWSLGDWGAEACTCSPSHPQDAFCNSDIVIRAKVVGKKLVKEGPFGTLVYTIKQMKMYRGFTKMPHVQYIHTEASESLCGLKLEVNKYQYLLTGRVYDGKMYTGLCNFVERWDQLTLSQRKGLNYRYHLGCNCKIKSCYYLPCFVTSKNECLWTDMLSNFGYPGYQSKHYACIRQKGGYCSWYRGWAPPDKSIINATDP
[1]; 0.75 μg/disk, n=8
  CAMs in which VEGF-induced branching and leakage of blood vessels were inhibited: 75%
[1]; […], n=10
  CAMs in which VEGF-induced branching and leakage of blood vessels were inhibited: 90%
[2]
  neovascularization of tumors expressing TIMP3 vs control tumors: decrease in neovascularization
PAE-KDR cells; added exogenously at 0.3-1 μg/ml
  inhibition of proliferative response to VEGF165 and VEGF121: inhibited the proliferative response
PAE-KDR cells; over-expression of TIMP3 in endothelial cells
  proliferative response to VEGF165 and VEGF121: attenuation of the proliferative response
PAE-KDR cells; summary over CAM, proliferation and migration assays
  dose required to block the biological responses of in vivo angiogenesis, endothelial cell proliferation and migration: 0.3-3 μg/ml
PAE-FGFR1 cells
  effect on proliferative response to basic fibroblast growth factor (bFGF): Neither recombinant TIMP3 nor TIMP3 overexpression affected the proliferative response
Endothelial cells
  inhibition of DNA synthesis in response to VEGF165 ([3H]thymidine uptake): could also inhibit DNA synthesis
KDR
  IC50 for inhibition of [125I]VEGF binding to PAE-KDR cells: 3.3 to 4.5 µg/mL
Soluble FLT1-IgG
  inhibition of [125I]VEGF binding to soluble FLT1-IgG: could not inhibit
KDR-IgG
  direct binding of [125I]TIMP3 to KDR-IgG by cross-linking: could be covalently cross-linked to KDR-IgG
VEGFR-2 (KDR)
  effect on binding of [125I] VEGF to KDR: dramatically inhibited the binding
Soluble VEGFR-2
  cleaved sVEGFR-2 in the CM, less than mock cells: 10 fold
PAEKDR cells [3]
  VEGF-stimulated migration of cells expressing TIMP3 variant: dramatically reduced basal and VEGF-stimulated migration
PAEKDR cells [4]
  VEGF-stimulated formation of membrane ruffles: did not form membrane ruffles
